Test results from article PMC11845978 (Protein Science : A Publication of the Protein Society, 2025).

Target: the molecule itself
Test: […]

B1: Hendra virus PNT3 (aa 200–310 of the P/V/W proteins), wild type, full-length PNT3 (domain or fragment)
chain: TPTEEPPVIPEYYYGSGRRGDLSKSPPRGNVNLDSIKIYTSDDEDENQLEYEDEFAKSSSEVVIDTTPEDNDSINQEEVVGDPSDQGLEHPFPLGKFPEKEETPDVRRKDS
B1: binds.
